The values below come from publication PMC4339890 (Nature Communications, 2015).

The data set concerns the molecule itself. The data set can be described thus: not stated; PAXX 1-145 in solution (Supplementary Fig. 2).

B1: PAXX N-terminal fragment (1–145) (domain or fragment, human, UniProt Q9BUH6 1-145, looked up)
chain: MDPLSPPLCTLPPGPEPPRFVCYCEGEESGEGDRGGFNLYVTDAAELWSTCFTPDSLAALKARFGLSAAEDITPRFRAACEQQAVALTLQEDRASLTLSGGPSALAFDLSKVPGPEAAPRLRALTLGLAKRVWSLERRLAAAEET
notes: A SeMet-labelled double mutant L57M/L105M of the same limits was used for phasing only; source: E. coli (pETDuet-1), purified (nickel beads, HiTrap Q, Superdex 200 gel filtration)
In the case of B1, the “stoichiometry N” value is 2.
